Laboratory results as given in patent US7910100B2, “Antibodies directed to the mammalian EAG1 ion channel protein” (Max-Planck-Gesellschaft zur Forderung der Wissen, priority 2004, dated 2011).

T1: Eag1 current (Homo sapiens, UniProt O95259)
T1 construct: expressed in transfected cells
T1 sequence (O95259 1-962 isoform O95259-2): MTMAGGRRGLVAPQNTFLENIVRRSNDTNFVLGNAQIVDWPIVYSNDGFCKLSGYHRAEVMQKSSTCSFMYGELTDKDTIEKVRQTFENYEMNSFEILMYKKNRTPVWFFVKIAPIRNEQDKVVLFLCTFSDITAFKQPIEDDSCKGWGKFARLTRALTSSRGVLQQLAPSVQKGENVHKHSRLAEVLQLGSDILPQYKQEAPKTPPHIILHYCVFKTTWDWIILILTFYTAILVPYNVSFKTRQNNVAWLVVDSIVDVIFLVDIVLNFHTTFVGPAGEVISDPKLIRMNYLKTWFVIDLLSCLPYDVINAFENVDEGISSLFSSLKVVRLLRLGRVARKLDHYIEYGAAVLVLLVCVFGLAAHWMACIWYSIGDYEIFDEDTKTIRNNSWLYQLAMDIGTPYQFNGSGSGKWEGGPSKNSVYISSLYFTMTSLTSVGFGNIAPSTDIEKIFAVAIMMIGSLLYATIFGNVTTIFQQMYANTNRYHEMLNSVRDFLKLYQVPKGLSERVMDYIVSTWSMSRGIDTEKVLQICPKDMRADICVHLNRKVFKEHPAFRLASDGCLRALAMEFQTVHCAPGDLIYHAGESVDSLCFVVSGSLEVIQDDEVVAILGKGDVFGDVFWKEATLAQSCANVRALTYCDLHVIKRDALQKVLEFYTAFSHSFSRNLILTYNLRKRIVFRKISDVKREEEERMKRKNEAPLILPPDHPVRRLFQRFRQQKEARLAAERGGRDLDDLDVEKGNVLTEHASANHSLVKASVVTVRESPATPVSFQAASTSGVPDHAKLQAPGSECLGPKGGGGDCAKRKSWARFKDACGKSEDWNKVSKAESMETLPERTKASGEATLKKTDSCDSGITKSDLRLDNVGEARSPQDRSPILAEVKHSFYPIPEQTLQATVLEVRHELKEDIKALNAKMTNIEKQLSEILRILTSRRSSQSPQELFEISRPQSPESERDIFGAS

T2: Eag1 currents (Homo sapiens, UniProt O95259)
T2 construct: expressed in transfected cells; host or cells: HEK293
T2 sequence (O95259 1-962 isoform O95259-2): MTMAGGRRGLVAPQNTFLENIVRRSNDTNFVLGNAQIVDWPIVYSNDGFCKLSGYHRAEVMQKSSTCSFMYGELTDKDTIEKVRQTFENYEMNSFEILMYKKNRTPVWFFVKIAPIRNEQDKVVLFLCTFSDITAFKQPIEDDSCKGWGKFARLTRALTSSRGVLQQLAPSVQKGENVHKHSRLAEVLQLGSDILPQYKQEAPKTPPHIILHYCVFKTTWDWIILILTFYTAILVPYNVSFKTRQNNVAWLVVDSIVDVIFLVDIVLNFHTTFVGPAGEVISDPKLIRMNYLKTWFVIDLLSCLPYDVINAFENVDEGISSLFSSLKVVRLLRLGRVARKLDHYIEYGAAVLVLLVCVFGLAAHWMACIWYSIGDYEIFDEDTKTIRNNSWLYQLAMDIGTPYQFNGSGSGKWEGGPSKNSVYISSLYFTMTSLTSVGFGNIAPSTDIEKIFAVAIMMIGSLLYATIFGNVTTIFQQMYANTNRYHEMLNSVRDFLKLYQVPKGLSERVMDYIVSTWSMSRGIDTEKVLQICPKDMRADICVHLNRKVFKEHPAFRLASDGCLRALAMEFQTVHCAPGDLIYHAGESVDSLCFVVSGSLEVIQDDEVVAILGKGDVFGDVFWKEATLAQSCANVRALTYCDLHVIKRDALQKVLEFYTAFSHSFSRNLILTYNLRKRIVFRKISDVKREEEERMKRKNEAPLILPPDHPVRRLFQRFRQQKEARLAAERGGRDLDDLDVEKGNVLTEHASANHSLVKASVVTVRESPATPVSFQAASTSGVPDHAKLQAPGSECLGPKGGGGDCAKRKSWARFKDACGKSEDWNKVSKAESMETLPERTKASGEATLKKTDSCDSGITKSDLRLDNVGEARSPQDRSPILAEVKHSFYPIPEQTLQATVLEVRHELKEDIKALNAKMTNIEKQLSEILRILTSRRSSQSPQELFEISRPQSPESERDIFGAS


How the values were obtained:
Eag1 = test: BIAcore binding analysis on Eag1 C-terminus and H5 region; settings: 10 μg/ml antibody, flow rate 20 μl/min; chips coated with Eag1 C-terminus (aa 694 to 962) or H5 region (aa 374 to 452)
Procedure: In order to analyse cross-reactivity of anti-Eag1 antibodies of the invention with the most homologous Eag family member Eag2 a BIAcore™ binding analysis was performed. BIAcore chips were coated with Eag1 C-terminus (amino acids 694 to 962), the H5 region (amino acids 374 to 452) or Eag2 (the equivalent regions fused in a single construct). The interaction with anti-Eag1 antibodies ImAb1 and ImAb3 were analysed using 10 μg/ml antibody at a flow rate of 20 μl/min.

Eag1 current = molecular target: T1, Eag1 current; test: Two-electrode voltage clamp in Eag1-expressing oocytes; format: cell-based; settings: 10% hybridoma supernatant
Procedure: In order to analyse the functional properties of anti-Eag1 antibodies of the invention were analysed by a two-electrode voltage clamp experiment. Therefore, Oocyte preparation and electrophysiological recordings were performed as described in Stühmer, W., 1992, Methods in Enzymology 207. Oocytes were injected with synthetic mRNA coding for Eag1, incubated for 48 h and recorded in NFR (115 mM NaCl, 1.8 CaCl2, 2.5 KCl, 10 Hepes pH 7.2) until stable traces were recorded. Then, 10% of the corresponding hybridoma supernatant producing ImAb1 or ImAb3 was added to the chamber and current amplitudes were further monitored.

Eag1 currents = molecular target: T2, Eag1 currents; test: Whole cell patch clamp, Eag1 currents in transfected HEK293 cells; format: cell-based; settings: 300 nM, control antibody
Procedure: To characterize effective affinity and specificity of the antibodies, block of Eag1 currents by ImAb3 in transfected HEK293 cells was tested in the whole cell configuration of the patch clamp technique. Currents were elicited by the depicted (FIG. 18a) pulse protocol (depolarization to +40 mV from a holding potential of −80 mV). Once a stable current level had been achieved, the antibody was applied to the bath chamber at a concentration of 300 nM, (approx 45 μg/ml). […] The antibody and the peptide were incubated (1:1 representing approximately 50 times molar excess of the peptide) at room temperature for 1 h and the mixture was used as described for the antibody alone.

Molecule | binding region on Eag1 antigen (Eag1) | inhibition of Eag1 current (Eag1 current) | effect on current amplitudes (Eag1 currents)
ImAb1: mouse monoclonal anti-Eag1 antibody; VL SEQ ID NO: 43, VH SEQ ID NO: 44; binds C-terminus of Eag1 (antibody, listed as Mus musculus) heavy: MNFGFSLIFLVLVLKGVQCEVKLVESGGGLVKPGGSLKLSCAASGFTFSNYAMSWVRQTPEKRLEWVASISSDGDTYFPDNVKGRFTISRENAGNILFLQMSSLRSEDTAMYYCARGFMITFWGQGTLVTVSAAKTTPPSVYPLAPGCGDTTGSSVTLGCLVKGYFPESVTVTWNSGSLSSSVHTFPALLQSGLYTMSSSVTVPSSTWPSQTVTCSVAHPASSTTVD light: MDMRAPAQFFGILLLWFPGIRCDIKMTQSPSSMYASLGERVTITCKASQDIKSYLSWYQQKPWKSPKILIYYATSLADGVPSRISGSGSGQDYSLTISSLESDDTATYYCLQHGESPYTFGGGTKLEIKRADAAPTVSIFPPSSEQLTSGGASVVCFLNNFYPKDINVKWKIDGSERQNGVLNSWTDQDSKDSTYSMSSTLTLTKDEYERHNSYTCEATHKTSTSPIVKSFNRNEC | specifically binds to the C-terminus of the Eag1 antigen | No inhibition of Eag1 current was detected | 
ImAb4: mouse monoclonal anti-Eag1 antibody, IgG2b kappa; light chain SEQ ID NO: 2, heavy chain SEQ ID NO: 4 (antibody, listed as Mus musculus) heavy: MRVLILLWLFTAFPGILSDVQLQESGPGLVKPSQSLSLTCTVTGYSITSDYAWNWIRQFPGNKLEWMGYISYSGSTIYNPSLKSRISITRDTSKNQFFLQLNSVTTEDTATYYCARFGNYGNTLNYWGQGTSVTVSSAKTTPPSVYPLAPGCGDTTGSSVTLGCLVKGYFPESVTVTWNSGSLSSSVHTFPALLQSGLYTMSSSVTVPSSTWPSQTVTCSVAHPASSTTVDKKLEPSGPISTINPCPPCKECHKCPAPNLEGGPSVFIFPPNIKDVLMISLTPKVTCVVVDVSEDDPDVQISWFVNNVEVHTAQTQTHREDYNSTIRVVSTLPIQHQDWMSGKEFKCKVNNKDLPSPIERTISKIKGLVRAPQVYILPPPAEQLSRKDVSLTCLVVGFNPGDISVEWTSNGHTEENYKDTAPVLDSDGSYFIYSKLNMKTSKWEKTDSFSCNVRHEGLKNYYLKKTISRSPGK light: MKLPVRLLVLMFWIPASSSDVVMTQTPLSLPVSLGDQASISCRSSQSLVHSNGNTYLHWYLQKPGQSPKLLIYKVSNRFSGVPDRFSGSGSGTDFTLKISRVEAEDLGVYFCSQSTHVPPTFGGGTKLEIKRADAAPTVSIFPPSSEQLTSGGASVVCFLNNFYPKDINVKWKIDGSERQNGVLNSWTDQDSKDSTYSMSSTLTLTKDEYERHNSYTCEATHKTSTSPIVKSFNRNEC |  |  | showed no effect on current amplitudes
